According to US20110171285A1, “Design of Fibrinogen and Fibrinogen Derived Products with Reduced Bacterial Binding by Using Modified Sequences of Fibrinogen Chains” (priority 2009, published 2011):

Target: human platelet integrin αIIbβ3 (human), P08514
Assay: competition ELISA: integrin αIIbβ3 coated, 10 nM human Fg added with varying peptide, bound Fg detected with anti-Fg antibodies/HRP

IC50 (read off the curve): 10 µM
Binder: GQQHHLGGAKQAGDV (modifications not checked) [human 15-mer C-terminal Fg γ-chain peptide (…)]
